# Reference: patent publication US20250250355A1 (BIOSION, published 2025)
# Read-outs that look alike come from different tables or passages of the source.
# T1: cynomolgus SIRPα-his protein (cynomolgus)
# T1 construct: also called Cyno SIRPα-his; monkey SIRPα
# T1 chain: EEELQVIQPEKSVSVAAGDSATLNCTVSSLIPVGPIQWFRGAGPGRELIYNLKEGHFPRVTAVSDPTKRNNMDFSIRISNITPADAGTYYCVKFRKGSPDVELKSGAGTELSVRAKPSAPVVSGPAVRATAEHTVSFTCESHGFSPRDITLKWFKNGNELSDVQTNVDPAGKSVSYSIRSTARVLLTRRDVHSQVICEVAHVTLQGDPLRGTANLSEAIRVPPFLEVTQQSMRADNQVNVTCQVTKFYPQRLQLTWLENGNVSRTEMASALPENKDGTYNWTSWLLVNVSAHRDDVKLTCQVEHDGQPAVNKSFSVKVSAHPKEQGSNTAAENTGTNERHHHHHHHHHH
# B1: BI-765063 (antibody, human IgG4 S228P, kappa, V domains shown)
# VH: EVQLVQSGAEVKKPGESLRISCKASGYSFTSYWVHWVRQMPGKGLEWMGNIDPSDSDTHYSPSFQGHVTLSVDKSISTAYLQLSSLKASDTAMYYCVRGGTGTLAYFAYWGQGTLVTVSS
# VL: DVVMTQSPLSLPVTLGQPASISCRSSQSLVHSYGNTYLYWFQQRPGQSPRLLIYRVSNRFSGVPDRFSGSGSGTDFTLKISRVEAEDVGVYYCFQGTHVPYTFGGGTKVEIKR
# notes: also called BM5
# Assays:
# [1] = biological target: T2, full length human SIRPα on cell membranes (HEK293-SIRPα cells; 293F-SIRPα cells) (human, UniProt P78324 31-504); test: cell based binding FACS on HEK293-SIRPα cells, MFI
# T2 construct: whole, on cells; also called cell surface human SIRPα; cell surface SIRPα
# T2 sequence (P78324 31-504): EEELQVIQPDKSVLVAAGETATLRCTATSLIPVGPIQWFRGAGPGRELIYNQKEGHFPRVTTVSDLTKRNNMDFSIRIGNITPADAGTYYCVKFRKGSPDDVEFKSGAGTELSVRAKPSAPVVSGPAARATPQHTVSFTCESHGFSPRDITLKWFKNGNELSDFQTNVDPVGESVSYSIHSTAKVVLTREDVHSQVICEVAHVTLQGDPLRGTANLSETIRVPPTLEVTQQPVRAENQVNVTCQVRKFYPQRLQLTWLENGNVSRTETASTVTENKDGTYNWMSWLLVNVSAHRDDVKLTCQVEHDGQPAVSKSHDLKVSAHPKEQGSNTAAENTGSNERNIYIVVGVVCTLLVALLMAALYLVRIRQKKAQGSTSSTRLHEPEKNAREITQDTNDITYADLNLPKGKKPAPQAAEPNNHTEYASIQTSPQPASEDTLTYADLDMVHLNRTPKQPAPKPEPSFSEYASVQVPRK
# [2] = biological target: human SIRPβ-his protein (human, UniProt O00241 30-371); test: SPR (Biacore T200); antibody captured on Protein A chip, human SIRPβ-his flowed from 200 nM; 1:1 Langmuir fit
# human SIRPβ-his protein, sequence (O00241 other isoform, or with tags, fused parts or gaps limits assumed): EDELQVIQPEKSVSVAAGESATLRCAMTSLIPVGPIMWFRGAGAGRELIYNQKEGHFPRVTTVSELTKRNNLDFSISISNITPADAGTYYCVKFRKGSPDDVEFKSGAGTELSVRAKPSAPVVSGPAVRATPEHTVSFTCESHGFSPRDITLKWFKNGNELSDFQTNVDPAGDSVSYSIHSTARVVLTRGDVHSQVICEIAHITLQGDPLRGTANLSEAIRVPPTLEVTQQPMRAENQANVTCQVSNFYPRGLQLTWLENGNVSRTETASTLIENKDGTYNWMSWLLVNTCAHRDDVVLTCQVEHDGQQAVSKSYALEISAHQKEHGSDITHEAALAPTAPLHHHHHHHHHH
# [3] = biological target: T3, full length human SIRPβ on cell membranes (HEK293-SIRPβ cells; 293F cells expressing human SIRPβ) (human, UniProt O00241 30-398); test: cell based binding FACS on 293F cells expressing human SIRPβ, MFI; curve not visible in the scan
# T3 construct: whole, on cells; also called cell surface human SIRPβ
# T3 sequence (O00241 30-398): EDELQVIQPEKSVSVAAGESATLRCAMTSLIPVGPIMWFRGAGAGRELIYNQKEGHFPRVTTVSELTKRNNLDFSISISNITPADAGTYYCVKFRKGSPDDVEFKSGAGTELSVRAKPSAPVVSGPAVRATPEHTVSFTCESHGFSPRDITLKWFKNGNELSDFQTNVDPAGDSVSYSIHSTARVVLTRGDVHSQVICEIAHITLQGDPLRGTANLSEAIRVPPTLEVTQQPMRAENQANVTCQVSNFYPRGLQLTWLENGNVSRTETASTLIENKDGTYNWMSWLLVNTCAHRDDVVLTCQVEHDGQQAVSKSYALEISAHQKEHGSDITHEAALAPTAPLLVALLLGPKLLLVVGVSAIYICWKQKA
# [4] = biological target: T4, recombinant human SIRPα-Fc protein (human, biotin-labeled (sites not given)); test: capture ELISA, antibody captured on anti-mouse IgG F(ab')2, biotin-labeled human SIRPα-Fc in solution, OD(450-630); curve not visible in the scan
# T4 construct: also called biotin-labeled human SIRPα-Fc protein
# T4 sequence (chain, as listed by the source limits assumed): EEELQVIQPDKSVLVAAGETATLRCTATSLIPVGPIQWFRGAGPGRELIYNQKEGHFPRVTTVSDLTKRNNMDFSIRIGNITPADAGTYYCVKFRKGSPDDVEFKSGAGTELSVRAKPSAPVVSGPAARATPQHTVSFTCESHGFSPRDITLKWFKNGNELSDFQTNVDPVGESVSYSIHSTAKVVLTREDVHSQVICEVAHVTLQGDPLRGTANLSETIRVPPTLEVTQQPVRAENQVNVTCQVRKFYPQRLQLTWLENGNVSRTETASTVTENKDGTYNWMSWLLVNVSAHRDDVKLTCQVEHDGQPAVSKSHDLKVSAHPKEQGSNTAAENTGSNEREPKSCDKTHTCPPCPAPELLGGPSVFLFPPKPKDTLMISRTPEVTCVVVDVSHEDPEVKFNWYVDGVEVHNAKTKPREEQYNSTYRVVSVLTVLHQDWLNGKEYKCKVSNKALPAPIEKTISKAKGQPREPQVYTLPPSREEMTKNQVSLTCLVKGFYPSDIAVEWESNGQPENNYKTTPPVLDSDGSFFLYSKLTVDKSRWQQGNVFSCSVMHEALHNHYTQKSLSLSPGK
# [5] = biological target: T5, human SIRPα protein (soluble, used on 293F-CD47 cells) (human, UniProt P78324 31-370, limits assumed); test: cell based blocking FACS on 293F-CD47 cells; soluble human SIRPα protein blocked from binding cell surface human CD47, MFI; curve not visible in the scan
# T5 sequence (P78324 31-370 limits assumed): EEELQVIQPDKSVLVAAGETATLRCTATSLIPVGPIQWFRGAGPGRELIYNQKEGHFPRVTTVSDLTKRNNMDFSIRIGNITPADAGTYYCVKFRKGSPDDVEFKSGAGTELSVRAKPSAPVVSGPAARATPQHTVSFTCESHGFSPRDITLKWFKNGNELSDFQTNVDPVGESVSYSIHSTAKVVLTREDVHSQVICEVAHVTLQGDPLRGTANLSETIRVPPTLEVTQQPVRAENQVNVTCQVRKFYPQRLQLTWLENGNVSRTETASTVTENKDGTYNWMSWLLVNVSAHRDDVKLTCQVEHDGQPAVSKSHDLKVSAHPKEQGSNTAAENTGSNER
# [6] = biological target: T2, full length human SIRPα on cell …; test: cell based binding FACS on 293F cells expressing human SIRPα, MFI; curve not visible in the scan
# [7] = biological target: T6, human SIRPα-V8-his protein (human, UniProt P78324 31-370, limits assumed); test: indirect ELISA on coated human SIRPα-V8-his, OD(450-630); curve not visible in the scan
# T6 sequence (P78324 other isoform, or with tags, fused parts or gaps limits assumed): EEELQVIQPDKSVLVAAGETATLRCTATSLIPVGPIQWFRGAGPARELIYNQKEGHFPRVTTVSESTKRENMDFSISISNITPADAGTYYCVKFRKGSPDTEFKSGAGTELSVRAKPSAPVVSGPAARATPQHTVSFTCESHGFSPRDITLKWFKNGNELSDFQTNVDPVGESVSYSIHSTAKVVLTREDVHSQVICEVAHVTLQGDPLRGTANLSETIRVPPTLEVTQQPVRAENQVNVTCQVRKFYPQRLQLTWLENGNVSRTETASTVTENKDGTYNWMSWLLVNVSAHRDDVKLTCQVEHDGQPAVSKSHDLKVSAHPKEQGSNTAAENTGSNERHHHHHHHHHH
# [8] = biological target: T1, cynomolgus SIRPα-his protein; test: indirect ELISA on coated cynomolgus SIRPα-his, OD(450-630); curve not visible in the scan
# [9] = biological target: T6, human SIRPα-V8-his protein; test: indirect ELISA on coated human SIRPα-V8-his, OD(450-630); curve flat at the baseline (see non_binding)
# [10] = biological target: human SIRPα-isoform 2-his protein (human); test: indirect ELISA on coated human SIRPα-isoform 2-his, OD(450-630); curve flat at the baseline (see non_binding)
# human SIRPα-isoform 2-his protein (human), sequence (chain, as listed by the source limits assumed): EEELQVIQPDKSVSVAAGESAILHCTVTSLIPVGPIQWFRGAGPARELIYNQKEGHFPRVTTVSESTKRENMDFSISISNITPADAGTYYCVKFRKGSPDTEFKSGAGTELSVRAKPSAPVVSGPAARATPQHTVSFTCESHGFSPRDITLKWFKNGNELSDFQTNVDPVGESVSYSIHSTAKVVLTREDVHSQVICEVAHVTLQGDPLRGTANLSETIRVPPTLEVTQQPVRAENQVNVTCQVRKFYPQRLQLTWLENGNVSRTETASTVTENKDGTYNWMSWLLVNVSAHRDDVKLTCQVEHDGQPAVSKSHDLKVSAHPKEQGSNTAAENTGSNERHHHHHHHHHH
# [11] = biological target: T2, full length human SIRPα on cell …; test: cell based blocking FACS on 293F-SIRPα cells; blocked ligand: biotin-labeled human CD47-Fc, MFI
# [12] = biological target: T5, human SIRPα protein (soluble, used on …); test: cell based blocking FACS on 293F-CD47 cells; soluble human SIRPα protein blocked from binding cell surface human CD47, MFI; curve not visible in the scan; remark: listed apart in the source
# [13] = biological target: T2, full length human SIRPα on cell …; test: cell based binding FACS on 293F cells expressing human SIRPα, MFI; curve not visible in the scan; remark: listed apart in the source
# [14] = biological target: T1, cynomolgus SIRPα-his protein; test: indirect ELISA on coated cynomolgus SIRPα-his, OD(450-630); curve not visible in the scan
# [15] = biological target: T3, full length human SIRPβ on cell …; test: cell based binding FACS on 293F cells expressing human SIRPβ, MFI; curve not visible in the scan; remark: listed apart in the source
# [16] = biological target: T2, full length human SIRPα on cell …; test: cell based blocking FACS on 293F-SIRPα cells; blocked ligand: human CD47 protein (CD47-Fc), MFI; curve not visible in the scan
# [17] = biological target: T7, human SIRPα-his protein (human, UniProt P78324 31-370); test: competitive ELISA on coated human SIRPα-his; blocked ligand: biotin-labeled human CD47-his, OD(450-630); curve not assignable in the scan
# T7 sequence (P78324 other isoform, or with tags, fused parts or gaps limits assumed): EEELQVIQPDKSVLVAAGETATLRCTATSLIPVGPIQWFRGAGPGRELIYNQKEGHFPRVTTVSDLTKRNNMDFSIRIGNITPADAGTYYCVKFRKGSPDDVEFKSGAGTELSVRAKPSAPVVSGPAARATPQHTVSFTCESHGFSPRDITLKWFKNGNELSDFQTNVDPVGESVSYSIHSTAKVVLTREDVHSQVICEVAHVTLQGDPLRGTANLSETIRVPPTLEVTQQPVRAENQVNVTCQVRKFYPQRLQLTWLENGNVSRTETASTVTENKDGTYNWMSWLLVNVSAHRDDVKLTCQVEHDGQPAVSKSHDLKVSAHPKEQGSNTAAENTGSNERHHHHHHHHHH
# [18] = biological target: T2, full length human SIRPα on cell …; test: cell based blocking FACS on 293F-SIRPα cells; blocked ligand: human CD47 protein (CD47-Fc), MFI; curve not visible in the scan; remark: listed apart in the source
# [19] = biological target: T7, human SIRPα-his protein; test: SPR (Biacore T200); antibody captured on Protein A chip, human SIRPα-his flowed from 200 nM; 1:1 Langmuir fit
# [20] = biological target: human SIRPα-isoform 2-his protein (human); test: indirect ELISA on coated human SIRPα-isoform 2-his, OD(450-630); curve not visible in the scan
# [21] = biological target: human SIRPα-isoform 2-his protein (human); test: as above; remark: listed apart in the source
# [22] = biological target: T3, full length human SIRPβ on cell …; test: cell based binding FACS on HEK293-SIRPβ cells, MFI
binder,measurement,setting,value
B1,EC50,[1],0.633 nM
same,Kd,[2],30.5 nM
same,koff,[2],0.00928 s⁻¹
same,kon,[2],304000 M⁻¹ s⁻¹
same,EC50,[3],0.482 nM
same,EC50,[4],0.249 nM
same,IC50,[5],0.386 nM
same,EC50,[6],0.585 nM
same,EC50,[7],~167 nM
same,EC50,[8],~7840 nM
same,EC50,[9],12.2 nM
same,EC50,[10],~11 nM
same,IC50,[11],0.338 nM
same,IC50,[12],0.361 nM
same,EC50,[13],0.545 nM
same,EC50,[14],~16.6 nM
same,EC50,[15],0.46 nM
same,IC50,[16],1.9 nM
same,IC50,[17],3.92 nM
same,IC50,[18],1.83 nM
same,Kd,[19],26.7 nM
same,koff,[19],0.00775 s⁻¹
same,kon,[19],290000 M⁻¹ s⁻¹
same,EC50,[20],15.2 nM
same,EC50,[21],~4000 nM
same,EC50,[22],0.509 nM
